In one assay the target is TPM2 (human) (UniProt P07951). As to the kind of experiment: co-IP with anti-FLAG, C-FLAG B3GNT2, mass spectrometry.
Assay [1] addresses RPL7A (human) (UniProt P62424). The description is as above.
For another assay, the target named is RBM14 (human) (UniProt Q96PK6). The assay is described as above.
In a further assay the target is RPL28 (human) (UniProt P46779). Described as above.
The next assay deals with PRRC2C (human) (UniProt Q9Y520). The assay is described as above.
For another assay, the target named is RACK1 (human) (UniProt P63244). Described as above.
The target of another assay is XPOT (human) (UniProt O43592). The assay is described as above.
Another assay deals with RPS27A (human) (UniProt P62979). The assay is described as above.
In assay [2] the target is XPO1 (human) (UniProt O14980). Described as above.
The target in a further assay is RHOT2 (human) (UniProt Q8IXI1). The assay is described as above.
In the next assay the target is MMP14 (human) (UniProt P50281). The description is as above.
For assay [3], the target named is RPL6 (human) (UniProt Q02878). Described as above.
A further assay deals with RUVBL2 (human) (UniProt Q9Y230). Described as above.
For the next assay, the target named is SYNM (human) (UniProt O15061). The description is as above.
A further assay has as its target P4HA2 (human) (UniProt O15460). The assay is described as above.
The next assay has as its target RPS24 (human) (UniProt P62847). Described as above.
The target in the next assay is T1, YTHDF2 (human) (UniProt Q9Y5A9).
T1 sequence (looked up): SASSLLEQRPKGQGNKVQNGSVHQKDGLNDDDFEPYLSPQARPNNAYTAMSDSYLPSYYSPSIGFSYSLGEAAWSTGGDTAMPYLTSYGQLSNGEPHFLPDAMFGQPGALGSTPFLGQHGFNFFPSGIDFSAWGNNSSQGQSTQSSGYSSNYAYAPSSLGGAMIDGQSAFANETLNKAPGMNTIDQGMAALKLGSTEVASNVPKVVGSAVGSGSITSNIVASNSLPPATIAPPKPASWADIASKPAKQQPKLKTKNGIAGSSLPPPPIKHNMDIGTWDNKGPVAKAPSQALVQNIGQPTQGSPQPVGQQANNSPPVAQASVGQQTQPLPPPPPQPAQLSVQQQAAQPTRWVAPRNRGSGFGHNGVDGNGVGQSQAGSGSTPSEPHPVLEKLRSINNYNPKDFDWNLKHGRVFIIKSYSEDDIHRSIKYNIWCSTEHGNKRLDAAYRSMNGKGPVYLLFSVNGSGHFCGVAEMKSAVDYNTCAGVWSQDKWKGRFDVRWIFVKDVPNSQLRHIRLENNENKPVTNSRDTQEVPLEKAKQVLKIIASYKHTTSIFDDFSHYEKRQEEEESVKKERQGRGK
Described as above.

The target of the next assay is ARPC1B (human) (UniProt O15143). Described as above.
The next assay concerns the target TBL2 (human) (UniProt Q9Y4P3). The assay is described as above.
A further assay has as its target GBF1 (human) (UniProt Q92538). The assay is described as above.
For assay [4], the target named is TM9SF1 (human) (UniProt O15321). The assay is described as above.
A further assay deals with MAP4 (human) (UniProt P27816). The description is as above.
The next assay deals with PSMA3 (human) (UniProt P25788). In words: co-IP with IgG control, lysate of N-FLAG B3GNT2 cells, mass spectrometry.
The target of the next assay is CLTC (human) (UniProt Q00610). The assay is described as above.
A further assay has as its target JUP (human) (UniProt P14923). The description is as above.
For the next assay, the target named is LUC7L3 (human) (UniProt O95232). The assay is described as above.
Assay [5] concerns the target RPL7A (human) (UniProt P62424). Described as above.
The target in assay [6] is XPO1 (human) (UniProt O14980). The assay is described as above.
Assay [7] addresses RPL6 (human) (UniProt Q02878). The description is as above.
The next assay has as its target UniProt P01837.1. Described as above.
The target in a further assay is DDX17 (human) (UniProt Q92841). Described as above.
Assay [8] deals with TM9SF1 (human) (UniProt O15321). The description is as above.
Another assay addresses RPS20 (human) (UniProt P60866). The assay is described as above.

Sequence of XPO1 (human) (O14980 whole entry): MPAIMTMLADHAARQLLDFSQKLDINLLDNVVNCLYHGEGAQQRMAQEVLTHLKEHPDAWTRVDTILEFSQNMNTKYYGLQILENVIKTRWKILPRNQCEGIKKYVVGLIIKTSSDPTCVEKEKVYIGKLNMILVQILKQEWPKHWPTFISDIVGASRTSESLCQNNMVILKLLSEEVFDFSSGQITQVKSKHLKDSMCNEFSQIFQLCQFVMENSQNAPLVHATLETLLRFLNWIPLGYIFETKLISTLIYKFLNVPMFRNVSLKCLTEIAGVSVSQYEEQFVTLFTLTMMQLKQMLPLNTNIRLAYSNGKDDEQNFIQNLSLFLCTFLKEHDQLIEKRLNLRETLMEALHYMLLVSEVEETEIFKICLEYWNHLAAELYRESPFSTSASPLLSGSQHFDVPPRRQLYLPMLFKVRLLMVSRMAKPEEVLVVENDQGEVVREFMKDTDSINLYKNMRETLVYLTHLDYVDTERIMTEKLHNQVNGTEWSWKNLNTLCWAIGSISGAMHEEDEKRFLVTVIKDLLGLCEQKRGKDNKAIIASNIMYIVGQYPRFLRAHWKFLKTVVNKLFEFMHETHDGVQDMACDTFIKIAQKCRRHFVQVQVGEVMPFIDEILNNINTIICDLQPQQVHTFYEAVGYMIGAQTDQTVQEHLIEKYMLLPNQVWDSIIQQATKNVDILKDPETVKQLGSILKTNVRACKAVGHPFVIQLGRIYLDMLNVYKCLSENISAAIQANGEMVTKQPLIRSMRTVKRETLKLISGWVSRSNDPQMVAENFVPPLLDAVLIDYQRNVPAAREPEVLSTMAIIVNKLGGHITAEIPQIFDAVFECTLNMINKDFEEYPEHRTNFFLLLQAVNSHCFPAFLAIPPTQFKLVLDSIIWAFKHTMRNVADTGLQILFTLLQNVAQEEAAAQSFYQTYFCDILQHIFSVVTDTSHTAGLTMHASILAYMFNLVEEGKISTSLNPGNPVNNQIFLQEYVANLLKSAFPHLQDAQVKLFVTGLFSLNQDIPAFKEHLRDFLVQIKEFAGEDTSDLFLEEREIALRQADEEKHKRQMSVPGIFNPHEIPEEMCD
Sequence of TM9SF1 (human) (O15321 other isoform, or with tags, fused parts or gaps limits assumed): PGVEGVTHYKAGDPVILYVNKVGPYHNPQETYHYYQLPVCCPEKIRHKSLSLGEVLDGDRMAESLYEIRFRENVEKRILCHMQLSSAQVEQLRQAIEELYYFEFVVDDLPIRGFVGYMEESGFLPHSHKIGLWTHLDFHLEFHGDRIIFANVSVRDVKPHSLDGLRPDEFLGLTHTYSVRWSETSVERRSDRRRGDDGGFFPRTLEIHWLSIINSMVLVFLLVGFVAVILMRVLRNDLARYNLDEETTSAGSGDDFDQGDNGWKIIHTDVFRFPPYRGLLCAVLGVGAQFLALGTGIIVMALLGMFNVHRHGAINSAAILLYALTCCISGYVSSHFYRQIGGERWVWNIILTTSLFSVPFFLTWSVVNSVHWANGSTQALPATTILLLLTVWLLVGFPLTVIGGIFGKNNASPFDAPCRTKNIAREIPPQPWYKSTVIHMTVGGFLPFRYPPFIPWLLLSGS
Sequence of XPOT (human) (O43592 whole entry): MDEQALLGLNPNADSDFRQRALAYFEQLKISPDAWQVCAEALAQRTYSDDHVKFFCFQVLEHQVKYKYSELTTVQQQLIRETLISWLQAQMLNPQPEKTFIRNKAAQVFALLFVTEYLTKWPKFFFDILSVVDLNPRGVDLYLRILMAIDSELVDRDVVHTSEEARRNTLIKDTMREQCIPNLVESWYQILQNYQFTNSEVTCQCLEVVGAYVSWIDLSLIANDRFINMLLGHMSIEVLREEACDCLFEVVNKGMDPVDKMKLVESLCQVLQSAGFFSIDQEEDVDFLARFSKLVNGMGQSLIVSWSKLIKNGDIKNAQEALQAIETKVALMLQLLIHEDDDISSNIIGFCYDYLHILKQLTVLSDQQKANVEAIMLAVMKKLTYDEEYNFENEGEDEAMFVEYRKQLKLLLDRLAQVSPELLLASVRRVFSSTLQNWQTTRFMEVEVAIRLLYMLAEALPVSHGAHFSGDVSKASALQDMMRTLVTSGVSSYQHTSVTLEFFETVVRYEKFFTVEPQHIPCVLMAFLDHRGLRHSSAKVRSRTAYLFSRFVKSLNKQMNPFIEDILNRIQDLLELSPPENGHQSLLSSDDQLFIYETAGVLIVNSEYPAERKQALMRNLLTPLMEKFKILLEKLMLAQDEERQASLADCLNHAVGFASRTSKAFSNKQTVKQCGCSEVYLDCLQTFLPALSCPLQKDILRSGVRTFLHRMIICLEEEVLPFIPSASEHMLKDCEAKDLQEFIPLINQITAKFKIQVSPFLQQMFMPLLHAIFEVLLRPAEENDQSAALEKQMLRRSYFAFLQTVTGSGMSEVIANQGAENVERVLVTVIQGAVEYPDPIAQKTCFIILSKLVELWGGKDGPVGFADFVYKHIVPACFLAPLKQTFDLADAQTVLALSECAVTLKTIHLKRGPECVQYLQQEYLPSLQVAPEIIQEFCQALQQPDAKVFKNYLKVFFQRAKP
Sequence of RPS24 (human) (P62847 other isoform, or with tags, fused parts or gaps limits assumed): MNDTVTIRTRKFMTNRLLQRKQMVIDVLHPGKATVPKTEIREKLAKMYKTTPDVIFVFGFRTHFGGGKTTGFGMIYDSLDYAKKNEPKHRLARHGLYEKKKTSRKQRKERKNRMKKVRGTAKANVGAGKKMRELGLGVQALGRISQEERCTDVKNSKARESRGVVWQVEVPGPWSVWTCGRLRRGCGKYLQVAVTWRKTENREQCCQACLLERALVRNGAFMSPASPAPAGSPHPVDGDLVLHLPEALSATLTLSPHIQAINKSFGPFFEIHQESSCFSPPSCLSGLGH
Sequence of RBM14 (human) (Q96PK6 whole entry): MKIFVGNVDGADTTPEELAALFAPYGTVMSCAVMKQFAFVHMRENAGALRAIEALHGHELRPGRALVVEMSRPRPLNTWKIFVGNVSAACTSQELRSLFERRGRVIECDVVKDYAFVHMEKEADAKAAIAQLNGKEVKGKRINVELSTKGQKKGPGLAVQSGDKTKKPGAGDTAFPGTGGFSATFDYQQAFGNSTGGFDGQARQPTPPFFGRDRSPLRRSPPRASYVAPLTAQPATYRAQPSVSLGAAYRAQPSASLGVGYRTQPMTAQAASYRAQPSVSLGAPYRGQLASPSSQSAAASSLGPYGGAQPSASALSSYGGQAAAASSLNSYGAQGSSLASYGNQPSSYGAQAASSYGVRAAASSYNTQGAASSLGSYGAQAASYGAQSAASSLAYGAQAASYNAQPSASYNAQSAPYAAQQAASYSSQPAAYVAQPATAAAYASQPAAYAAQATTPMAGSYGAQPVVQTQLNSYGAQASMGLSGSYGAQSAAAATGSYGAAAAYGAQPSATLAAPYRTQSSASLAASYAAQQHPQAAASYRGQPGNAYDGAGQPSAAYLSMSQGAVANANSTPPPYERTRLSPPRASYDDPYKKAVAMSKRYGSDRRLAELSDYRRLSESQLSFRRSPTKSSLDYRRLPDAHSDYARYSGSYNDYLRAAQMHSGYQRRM
Sequence of SYNM (human) (O15061 whole entry): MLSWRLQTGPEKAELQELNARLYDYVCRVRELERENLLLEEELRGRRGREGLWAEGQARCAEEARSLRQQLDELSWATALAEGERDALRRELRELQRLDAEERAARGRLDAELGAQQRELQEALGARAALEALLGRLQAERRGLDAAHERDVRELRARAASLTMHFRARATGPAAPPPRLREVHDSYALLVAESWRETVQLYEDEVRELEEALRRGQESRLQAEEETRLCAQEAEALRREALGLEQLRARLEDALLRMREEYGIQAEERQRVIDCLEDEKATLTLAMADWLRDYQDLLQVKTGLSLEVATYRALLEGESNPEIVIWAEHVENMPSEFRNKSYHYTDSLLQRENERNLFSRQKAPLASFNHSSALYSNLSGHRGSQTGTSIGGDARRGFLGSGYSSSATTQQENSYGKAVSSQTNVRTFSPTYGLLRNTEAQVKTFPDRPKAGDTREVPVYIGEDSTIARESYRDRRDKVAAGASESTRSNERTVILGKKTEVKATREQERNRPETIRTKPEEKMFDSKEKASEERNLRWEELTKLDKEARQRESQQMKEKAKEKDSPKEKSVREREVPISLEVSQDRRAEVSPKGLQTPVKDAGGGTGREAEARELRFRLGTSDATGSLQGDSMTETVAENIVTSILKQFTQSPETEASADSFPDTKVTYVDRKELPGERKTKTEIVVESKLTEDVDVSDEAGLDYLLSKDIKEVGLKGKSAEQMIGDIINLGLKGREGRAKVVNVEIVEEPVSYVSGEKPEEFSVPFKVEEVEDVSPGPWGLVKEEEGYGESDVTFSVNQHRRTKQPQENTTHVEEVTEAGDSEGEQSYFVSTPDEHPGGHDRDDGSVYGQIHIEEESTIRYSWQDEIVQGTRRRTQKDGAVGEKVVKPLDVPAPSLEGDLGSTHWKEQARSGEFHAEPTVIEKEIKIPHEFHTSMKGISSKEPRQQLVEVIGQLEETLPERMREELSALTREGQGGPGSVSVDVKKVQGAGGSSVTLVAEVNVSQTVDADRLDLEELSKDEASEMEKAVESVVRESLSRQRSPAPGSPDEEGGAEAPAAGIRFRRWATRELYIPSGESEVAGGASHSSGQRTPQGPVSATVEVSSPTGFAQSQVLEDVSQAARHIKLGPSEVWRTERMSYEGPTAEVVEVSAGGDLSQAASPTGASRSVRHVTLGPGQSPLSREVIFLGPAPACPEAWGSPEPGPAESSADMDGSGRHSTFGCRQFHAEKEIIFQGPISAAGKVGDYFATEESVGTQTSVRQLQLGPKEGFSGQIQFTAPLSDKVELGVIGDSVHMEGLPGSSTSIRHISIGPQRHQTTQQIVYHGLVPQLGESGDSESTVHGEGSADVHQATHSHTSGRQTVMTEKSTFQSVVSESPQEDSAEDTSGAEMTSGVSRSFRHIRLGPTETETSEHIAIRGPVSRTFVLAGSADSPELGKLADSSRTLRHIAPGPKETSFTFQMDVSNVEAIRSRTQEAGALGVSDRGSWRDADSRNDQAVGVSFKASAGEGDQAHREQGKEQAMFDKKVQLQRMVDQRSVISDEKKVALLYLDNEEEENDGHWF

Consider “C-terminal FLAG tagged B3GNT2 (from UniProt Q9NY97 1-397) (enzyme)”, for which the co-IP/MS count, C-term flag amounted to 4 with TPM2 (human); 22 with RPL7A (human) [1]; 2 in the assay with RBM14 (human); 15 with PRRC2C (human); 2 in the assay with XPOT (human); 2 with XPO1 (human) [2]. The co-IP/MS count, C-term flag with MMP14 (human) is 2; in the assay with RPL6 (human) [3], 20; in the assay with RUVBL2 (human) it was 4; in the assay with P4HA2 (human), 4; with RPS24 (human) it was 8; in the assay with ARPC1B (human), 5. This substance gave a co-IP/MS count, C-term flag with TM9SF1 (human) [4] of 4. Moreover, the co-IP mass spectrometry count in the assay with RPL28 (human) was found to be 16; with RACK1 (human), 3; with RPS27A (human) it was 27; with RHOT2 (human), 2; in the assay with SYNM (human), 5; with YTHDF2 (human), 4. Moreover, the co-IP mass spectrometry count with TBL2 (human), with GBF1 (human) and in the assay with MAP4 (human) was 5 in each case.
For “IgG control (Millipore Sigma 12-371) (antibody)”, the co-IP/MS count, N-term IgG with PSMA3 (human) worked out at 0; with CLTC (human) it was 6; in the assay with JUP (human) it was 39; with LUC7L3 (human), 2; with RPL7A (human) [5], 4; with XPO1 (human) [6], 0. Moreover, the co-IP/MS count, N-term IgG worked out at 5 with RPL6 (human) [7]; 87 with UniProt P01837.1; 23 with DDX17 (human); 0 with TM9SF1 (human) [8]; 4 in the assay with RPS20 (human).

For the origin of these results see patent publication US20240261333A1, “NOVEL TARGETS FOR ENHANCING ANTI-TUMOR IMMUNITY” (THE BROAD INSTITUTE, INC., priority 2021, published 2024).
